2 molecules from paper PMC4569318 (Molecular Biology of the Cell, 2015) can be followed below.

Residue numbers refer to the chain shown, from its start.

The target in one test is T1, Sro7-D361K (S. cerevisiae, UniProt Q12038 1-1033, D361K).
T1 sequence: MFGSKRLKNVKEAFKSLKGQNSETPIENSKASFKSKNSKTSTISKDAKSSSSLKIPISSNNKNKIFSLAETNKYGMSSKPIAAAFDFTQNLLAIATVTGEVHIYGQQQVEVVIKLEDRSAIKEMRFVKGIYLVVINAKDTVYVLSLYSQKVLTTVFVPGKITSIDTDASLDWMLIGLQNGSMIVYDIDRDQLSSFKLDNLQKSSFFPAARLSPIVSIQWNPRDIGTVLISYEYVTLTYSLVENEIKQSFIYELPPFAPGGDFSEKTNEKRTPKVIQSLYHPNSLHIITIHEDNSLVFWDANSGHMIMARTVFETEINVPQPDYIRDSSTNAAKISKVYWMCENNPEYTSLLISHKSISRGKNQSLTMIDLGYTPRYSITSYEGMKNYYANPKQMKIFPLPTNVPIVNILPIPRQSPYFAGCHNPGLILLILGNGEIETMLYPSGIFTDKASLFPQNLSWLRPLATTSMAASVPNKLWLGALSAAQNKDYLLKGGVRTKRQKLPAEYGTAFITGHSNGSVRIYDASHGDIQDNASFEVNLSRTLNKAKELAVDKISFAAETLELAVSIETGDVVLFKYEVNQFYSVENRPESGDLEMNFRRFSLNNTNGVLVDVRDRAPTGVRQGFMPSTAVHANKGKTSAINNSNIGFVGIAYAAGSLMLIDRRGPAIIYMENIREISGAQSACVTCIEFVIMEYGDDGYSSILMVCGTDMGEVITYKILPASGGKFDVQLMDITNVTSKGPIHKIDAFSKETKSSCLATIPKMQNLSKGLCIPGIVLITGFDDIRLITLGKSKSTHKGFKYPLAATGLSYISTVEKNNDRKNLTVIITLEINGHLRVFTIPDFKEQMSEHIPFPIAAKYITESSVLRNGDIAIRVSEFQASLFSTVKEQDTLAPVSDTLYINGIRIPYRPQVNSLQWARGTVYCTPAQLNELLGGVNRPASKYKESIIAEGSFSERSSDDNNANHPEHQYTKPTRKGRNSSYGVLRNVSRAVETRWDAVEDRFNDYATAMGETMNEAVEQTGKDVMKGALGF
The test is described as follows: pull-down.

Test [1] has as its target T2, Sro7 (wild type, full length) (S. cerevisiae, UniProt Q12038 1-1033).
T2 sequence: T1 sequence with K361D
The test is described as follows: pull-down.

B1: GST-Sec4 (wild type) (natural protein)
chain: MSGLRTVSASSGNGKSYDSIMKILLIGDSGVGKSCLLVRFVEDKFNPSFITTIGIDFKIKTVDINGKKVKLQLWDTAGQERFRTITTAYYRGAMGIILVYDVTDERTFTNIKQWFKTVNEHANDEAQLLLVGNKSDMETRVVTADQGEALAKELGIPFIESSAKNDDNVNEIFFTLAKLIQEKIDSNKLVGVGNGKEGNISINSGSGNSSKSNCC
With B1, the binding result (with Sro7-D361K; in test [1]) was “binds” each time.

B2: GST-Sec9 (full length) (natural protein)
chain: MGLKKFFKIKPPEEATPEQNKDTLMELGISVKNPSKKRKEKFAAYGKFANDKAEDKVYAPPGYEQYARPQDELEDLNASPLDANANEATAGSNRGSSGTQDLGNGAESNSMQDPYAIENDDYRYDDDPYARFQANKSNGRGSVNAAPYGDYGGGYNGTSLNSYNNDGPYSNQNTSNSWVNANGRNSLNHSNSTLNVGPSRQTRQPPVSTSTNSLSLDQRSPLANPMQEKRNPYADMNSYGGAYDSNTNRSSGTRQGSSKNANPYASMANDSYSNGNLNRSANPYSSRSVRQPQSQQAPMTYTPSFIASDEAARNSEVDLNEEPRTGEFDFEEVYADKSAENRAALDEPDLNAVMTNEDSIDLNASEVDHSSRQQQQQQWFMDEQQQQQQHFNATNNQYGDQRGYKTFEEIQKEEEARQQQEEDEAVDEIKQEIKFTKQSSVASTRNTLKMAQDAERAGMNTLGMLGHQSEQLNNVEGNLDLMKVQNKVADEKVAELKKLNRSILAVHVSNPFNSKRRRREREEQLKNRKIEEKLMREQTSQQLSQSTQRIEGAMNANNNISEVRERYQRKNVLEKAKRYQFENDEEDDEMELEIDRNLDQIQQVSNRLKKMALTTGKELDSQQKRLNNIEESTDDLDINLHMNTNRLAGIR
For the molecule B2, the binding result in test [1] is listed as “binds”.
